Data as given in patent US20200002415A1 (published 2020).
Residue numbers refer to the chain shown, from its start. Values belong to the binder of their own block, whether it stands above or below them.

Legend:
[1] = target: T1, human FcγRIIA 131R on blood cells of 131R/R donors (human, UniProt P12318 34-317); assay: cell-based or functional assay
T1 chain: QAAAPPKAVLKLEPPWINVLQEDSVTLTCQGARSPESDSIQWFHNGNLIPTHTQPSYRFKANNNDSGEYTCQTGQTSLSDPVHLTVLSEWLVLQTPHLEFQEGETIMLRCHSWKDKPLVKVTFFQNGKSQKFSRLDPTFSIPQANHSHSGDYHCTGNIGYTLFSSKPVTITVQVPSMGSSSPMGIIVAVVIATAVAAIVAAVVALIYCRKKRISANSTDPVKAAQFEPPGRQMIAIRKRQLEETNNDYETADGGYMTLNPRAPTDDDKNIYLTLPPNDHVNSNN

[2] = target: T2, Recombinant FcγRIIA-131H/H allotype (generated at MedImmune) (human, UniProt P12318 34-217, limits assumed); assay: ELISA on coated recombinant FcγRIIA-131H/H
T2 construct: ELISA coating protein; also called human FcγRIIA; CD32A
T2 sequence: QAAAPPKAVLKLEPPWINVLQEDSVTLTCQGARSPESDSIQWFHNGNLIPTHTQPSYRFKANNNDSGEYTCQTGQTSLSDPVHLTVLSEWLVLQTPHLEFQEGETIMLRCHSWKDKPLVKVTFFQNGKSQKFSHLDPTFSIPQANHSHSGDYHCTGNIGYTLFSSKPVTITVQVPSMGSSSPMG
Protocol: Plates were washed five times with 200 μl of wash buffer (PBS containing 0.1% Tween 20), blocked with blocking buffer containing 5% milk in PBS for 1 hour at room temperature, and washed five additional times with wash buffer. Three-fold serial dilutions of the test antibody or control antibody (R347-Tm) were added to wells in duplicate. Plates were incubated for 2 hours at room temperature, and washed five times with wash buffer. Binding of the antibodies to the FcγRs was detected by adding 50 μl of goat anti-human Fc-HRP (Jackson ImmunoResearch Laboratories, PA) to the wells and incubating for 1 hour at room temperature, washing 10 times, and adding 50 μl TMB substrate (Pierce Biotechnology, MA). The color reaction was stopped with 50 μl 0.2M […] and the absorbance was measured using a spectrophotometer (Molecular Devices, CA) at […].

EC50 of FcγRIIA internalization from the monocyte surface, whole blood FACS assay [1]: 200 pM
B1: chimeric IV.3 (human IgG1-TM) (antibody, V domains shown)
VH: QIQLVQSGPELKKPGETVKISCKASGYTFTNYGMNWVKQAPGKGLKWMGWLNTYTGESIYPDDFKGRFAFSSETSASTAYLQINNLKNEDMATYFCARGDYGYDDPLDYWGQGTSVTVSS
VL: DIVMTQAAPSVPVTPGESVSISCRSSKSLLHTNGNTYLHWFLQRPGQSPQLLIYRMSVLASGVPDRFSGSGSGTAFTLSISRVEAEDVGVFYCMQHLEYPLTFGAGTKLELK

binding result [2]: binds
B2: 32LO0350 (antibody, human IgG1, V domains shown)
VH: QVQLVQSGAEVKKPGASVKVSCKASGYTFTNYGMNWVRQAPGQRLEWMGWLNTYTGESWYPDDFKGRVTITRDTSASTAYMELSSLRSEDTAVYYCARGDYGYDDPLDYWGQGTLVTVSS
VL: DIVMTQSPLSLPVTPGEPASISCRSSKSLLHTNRNTYLHWFLQKPGQSPQLLIYRMSVLASGVPDRFSGSGSGTDFTLKISRVEAEDVGVYYCMQHLEYPLTFGQGTKLEIK
notes: expressed as human IgG1-TM with human kappa light chain; also called optimized IV.3 clone 32LO0350

binding result [2]: binds
B3: 32LO0355 (antibody, human IgG1, V domains shown)
VH: B2 VH
VL: B2 VL with R34K
notes: expressed as human IgG1-TM with human kappa light chain; also called optimized IV.3 clone 32LO0355

binding result [2]: binds
B4: 32LO0354 (antibody, human IgG1, V domains shown)
VH: B2 VH with W59Y
VL: B2 VL
notes: expressed as human IgG1-TM with human kappa light chain; also called optimized IV.3 clone 32LO0354
